Reference: the supplement of paper PMC10567573
± gives the standard deviation.

Experiment: protein stability index of a GFP-peptide fusion (GPS, HEK-293T) (PSI 1-6); higher = more stable
Conditions: c terminus: a fixed tail appended
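Note: 24-mer peptide tiles fused after GFP, lentivirally expressed, FACS-sorted into six equal bins by GFP/DsRed ratio, decoded by Illumina sequencing, PSI is the read-weighted mean bin number.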

Sequence	protein stability index (treatment: DMSO)	protein stability index (treatment: MLN4924 1 uM, 8 h)
HPYSTTFQESASTPETRAKFTQDN [TEKT4]	4.54 ± 0.13	4.67 ± 0.31
DQTTSEETVGGAILDQTTSEDAVG [HDAC6]	5.54 ± 0.2	5.54 ± 0.26
KGSPDVSASSDEPYARIQQSRRQC [SMIM2]	4.74 ± 0.18	5.02 ± 0.2
YQLELQCCIDWTHVTDPLIGCKKP [SMG5]	2.38 ± 0.45	2.1 ± 0.3
AYQQGVGYQMLGNVVTIGLAFFPF [PHTF1]	2.93 ± 0.39	3.13 ± 0.067
LGSGQFAIVRKCRQKGTGKEYAAK [DAPK3]	3.55 ± 0.52	3.48 ± 0.16
NDKMAEYTNSAGVPSLNAALMHTL [GOSR1]	3.44 ± 0.32	3.42 ± 0.23
APKDSAPQDLAPQVSAHHRSQESL [TBC1D10A]	5.36 ± 0.2	5.38 ± 0.14
ARSGHRCVADNTNLYVFGGYNPDY [KLHDC10]	2.23 ± 0.22	2.3 ± 0.36
INSTAPFEEQENYFLLCDVLPEDR [ZNF277]	3.92 ± 0.36	4.12 ± 0.18
LQGAASHVPEGFDPTGPAGLGRPT [EHMT1]	4.54 ± 0.2	4.58 ± 0.14
AQTLLRLSGVQRVESVFFGGGTPS [RSAD1]	2.43 ± 0.27	2.47 ± 0.3
VGSLSWLRKQLQPTHCKYEGPRKA	2.87 ± 0.24	2.9 ± 0.21
LWFYNTSLKFFLNKPMLADVVFEI [RHOBTB3]	2.82 ± 0.32	3.04 ± 1.1
ISRALLSDVVPEKERPLVIGHFNT [MFSD9]	3.04 ± 0.45	2.99 ± 0.31
QAYAHYLLATFPRRALAPPSAGFR [ANKRD9]	2.31 ± 0.22	2.37 ± 0.23
RAGLDLPTIDTGYDSQPQDVLGIR [TRAF3IP2]	4.25 ± 0.37	4.29 ± 0.18
RVTSLANLISPVRNGAVRRFGQTI [NET1]	2.55 ± 0.14	2.63 ± 0.33
EAPDSLNGPLGPSEASIASNLQAM [SMG5]	4.99 ± 0.21	4.91 ± 0.25
EGYVWRGSQLEDQALRGLEGYTWR [ZSWIM9]	2.7 ± 0.22	2.67 ± 0.18
EEEPTGAGLNKDKETEERTDGERV [SDE2]	5.84 ± 0.13	5.61 ± 0.37
VCCNPYHFSRLCGPESPPPPYSRL [SMAD6]	2.15 ± 0.36	2.15 ± 0.18
YTFVPWLLSFKRGSALEEKENKIL [TNFSF13B]	2.51 ± 0.59	2.22 ± 0.3

Sequence	protein stability index (treatment: DMSO)	protein stability index (treatment: MLN4924 1 uM, 8 h)
SRLTALTLHQRTHTEERPFKCNYC [ZNF449]	2.73 ± 0.23	3.03 ± 0.4
DAASVYTLPAGADFLMCYSVAEGY [CASP6]	2.34 ± 0.22	2.33 ± 0.25
HTGEPLFSGSNEVDQMNRIVEVLG [DYRK1B]	3.59 ± 0.21	3.57 ± 0.25
GGLGTPLRLPMLNTEVVQVAAGRT [NEK8]	4.11 ± 0.35	4.06 ± 0.31
PKNPALEAFLAQFSQLEDKFPGQS [TOR1AIP2]	3.43 ± 0.1	3.64 ± 0.15
HSGSVVGAGLPQFQSISLRKIQFN [CLCN6]	2.85 ± 0.24	3 ± 0.27
ELAALLIERGASLEEVNDEGYTPL [ANKRD17]	2.34 ± 0.29	2.78 ± 0.53
PLPESRREIEELLAEAKYYLVQGL [KCTD10]	2.56 ± 0.2	2.77 ± 0.4
NVFKELQIMQGLEHPFLVNLWYSF [STK32A]	2.74 ± 0.55	2.49 ± 0.53
TERMDKVGDALEEVLSKALSQRTI [GADD45A]	3.83 ± 0.26	3.83 ± 0.13
TLLLQGHHDKVQSLCYLQLTRQLV [WDFY1]	2.8 ± 0.43	2.76 ± 0.38
QRSYFLRIFDIKDGKLLWEQELYN [WASL]	2.21 ± 0.48	2.08 ± 0.4
VPTPKSHLQLLGAVCMFLASKLKE [CCND2]	2.11 ± 0.28	1.92 ± 0.39
LCQKSNDISIHHFTCDEENVFAAV [WDR41]	2.84 ± 0.18	2.91 ± 0.31
MQPTLLLSLLGAVGLAAVNSMPVD [CHGB]	2.85 ± 0.68	2.94 ± 0.69
NSDPEVVNVDNLLAAAVVQEHSNS [C18orf25]	5.19 ± 0.35	5.33 ± 0.2
LLPPGEPPLLGTFPRDHTSLALVQ [ANKRD40]	3.48 ± 0.096	3.39 ± 0.31
RVEEQAILDAMAEETRQKQLLADE [TRIM35]	5.57 ± 0.26	5.38 ± 0.15
LQLLLGCKARMERDGYGMTPLLAA [FEM1A]	2.38 ± 0.5	2.24 ± 0.29
KGKLFTWNILKTIALGQMLSLCIC [SLC35F2]	2.62 ± 0.89	2.57 ± 0.57
HGSQGTYSNTKENGINGELTSADR [MAP2]	5.11 ± 0.24	5.17 ± 0.22
GNGKNLVDFTFVENVVHGHILAAE [NSDHL]	3.08 ± 0.36	2.91 ± 0.51
VRLMRQLLVINESIESIKWMIEEK [LURAP1L]	2.75 ± 0.35	2.86 ± 0.45

Sequence	protein stability index (treatment: DMSO)	protein stability index (treatment: MLN4924 1 uM, 8 h)
HGEADRSTLKKALPTLSHIQEAQS [YJU2B]	4.81 ± 0.3	4.7 ± 0.21
VPGLLLSYLMLVTVMMWPLAVYHR [RETREG3]	3.33 ± 0.44	3 ± 0.31
SRAESAPLPVSADDTPEVLNRALS [CDS2]	5.36 ± 0.19	5.37 ± 0.21
DQDTLAPLPHPGAAPWPMAFPYQY [DVL3]	3.15 ± 0.29	3.12 ± 0.25
HLSPLVVHRQLSHLYAEPQKSPWC [ESR2]	2.51 ± 0.36	2.79 ± 0.36
GSLYVFGGTTGYIYSTDLHKLDLN [KLHDC10]	2.4 ± 0.5	2.66 ± 0.46
RLPFLSSSNLSLDVLRGNDETIGF [POMP]	3.02 ± 0.42	3 ± 0.27
THVTLLITVTQSHLVIQNLFEGMI [CDS1]	3.09 ± 0.21	3.22 ± 0.16
ARQEGLTFFGTELAPVRQQELASL [PBXIP1]	3.56 ± 0.22	3.69 ± 0.48
RWGYVAMKFAQVFGCFFYVYYIFE [SOAT1]	3.17 ± 0.22	3.18 ± 0.39
GCFRSQGASLRLAVEDGLQQFKQY [M1AP]	2.88 ± 0.68	2.78 ± 0.074
VAFVDRADIKQYIGPPSAAAIFKI [TRIP13]	2.82 ± 0.66	2.36 ± 0.47
GMLAPAAGPAFDSDPEISDVDEDE [PPFIA4]	5.35 ± 0.73	5.54 ± 0.24
DECEKAYFYMSCLVKHKRIHSREK [ZNF649]	2.69 ± 0.14	2.9 ± 0.35
ICPKCWTLMTMAIRIIDRALKEDF [PRIM1]	2.25 ± 0.26	2.57 ± 0.37
GACPGADEAGGGAEGDSWEEEGFG [WEE1]	5.35 ± 0.24	5.54 ± 0.21
ECAMETTEEQTRQERQGPAKPEVL [NECAB1]	5.57 ± 0.33	5.6 ± 0.23
RARGWAAAARAAQRRRRVENAGGS [RSAD1]	4.48 ± 0.19	4.77 ± 0.17
GAARSFQEVTEPAVVAVDRQAIFP [PXN]	4.1 ± 0.26	4.04 ± 0.59
SPQIQRSAHRALYRRHVLGIVLQG [TMEM175]	2.3 ± 0.19	2.42 ± 0.36
GSDKQQQQQHIECVVCGDKSSGKH [NR2F2]	4.93 ± 0.35	5.07 ± 0.18
ENKPSTCSFSIERILGLDQKKDCV [HESX1]	3.12 ± 0.49	3.42 ± 0.47
LIHVYLPLTSHILRAFVNSQIQGH [SNX8]	3.2 ± 0.27	3.19 ± 0.52

Sequence	protein stability index (treatment: DMSO)	protein stability index (treatment: MLN4924 1 uM, 8 h)
FTGVITQGRNSLWLSDWVTSYKVM [CPXM2]	3.21 ± 0.45	2.94 ± 0.84
QLTCFSITCSSTMSYSCCLPSLGC [KRT34]	3.04 ± 0.58	2.65 ± 0.35
RRNSEFEIFVDCDINREQLNDIFH [TPH1]	2.55 ± 0.096	2.73 ± 0.27
RSLSPSLSSVDMRMTSSPSSIPRR [RAD54B]	4.66 ± 0.15	4.69 ± 0.18
AILGEQRPRQRQRVYPKCTWLTTP [TCF25]	2.46 ± 0.38	2.05 ± 0.27
SSRYDDYSSSRDGYGGSRDSYSSS [RBMX]	4.37 ± 0.25	4.52 ± 0.19
PCFKWYTSPWSECTKTCGVGVRMR [ADAMTSL2]	2.07 ± 0.17	2.33 ± 0.32
LPTVGGQLGTAGQGFSYSKSNGRG [MYOZ1]	4.3 ± 0.21	4.4 ± 0.35
RSHEGETAYIRVKVDGPRSPSYGR [SRSF1]	3.83 ± 0.19	3.73 ± 0.32
MDTQFTIRARELQNIYKCIMLKNI [IQUB]	2.27 ± 0.24	2.37 ± 0.3
ENAPIGTLLLRLNATDPDEGTNGQ [PCDHGC5]	4.95 ± 0.15	4.92 ± 0.18
SLSRNNSFRRNVGRVLLANSTQAD [FBXO34]	3.15 ± 0.24	3.21 ± 0.3
EAKALLKERQKKDNHNLIERRRRF [TFE3]	4.21 ± 0.32	4.38 ± 0.2
VHVISLHIWELSSIKNSLKVAAIS [PTGFR]	2.86 ± 0.46	3.07 ± 0.32
EQSLLSRWNPWSTEVPYATFTEHP [TPRG1]	3.13 ± 0.22	3.06 ± 0.16
KKWQQYRSVRRERLKEMKLLRDQF [FAM9B]	2.59 ± 0.27	2.71 ± 0.2
RLLRFSSQIHNNGQSDFRPKNGRH [LOXL2]	3.2 ± 0.41	3.42 ± 0.81
LIRGSTFAKAKPEIPWTSLTRKGL [PHTF1]	2.25 ± 0.17	2.41 ± 0.31
RTVAVGDIVWGKIHGFPWWPARVL [PWWP2B]	2.02 ± 0.47	2.17 ± 0.23
CCLVKMESLEPDAQVLMLGQILEL [FANCE]	3.04 ± 0.15	2.83 ± 0.48
